For one data set, the system named is E. coli BL21(DE3)pLysS. Briefly: MICs of beta-lactams on LB-agar for E. coli expression strains (Example 4). It counts as cell-based, Escherichia coli. The conditions noted are these: Table 10; BL21(DE3)pLysS + protein, IPTG induced; LB-agar, 37° C. overnight. The method, then:
The pre-cultures are then inoculated at 1/40th in 5 ml of LB+50 μg/ml Kanamycin medium and when the OD600 reaches a value of 0.6 (about 2 hours), the production of protein is induced by the addition of final IPTG 1 mM and continues for 1.5 hours at 37° C. with stirring at 200 rpm.
The dishes were incubated at 37° C. overnight and the results were recorded the following day. The MICs correspond to the lowest concentration of antibiotic at which the highest inoculum doesn't grow.

A short description of data set [1]: pH-STAT beta-lactam hydrolysis assay, substrate Augmentin. The note with it: 37° C., pH=7.0. Type of data set: biochemical. The protocol:
(§1) The purified proteins were tested on different beta-lactams (amoxicillin (Apollo Scientific), Augmentin® (GlaxoSmithKline) and Ceftriaxone (Rocéphine®, Roche)). The assays are carried out at pH-STAT (Titrino 2.5, Metrohm) in a reaction volume of 25 ml at 37° C. and pH=7.0. The substrates are prepared at 4 g/l in a 0.3 mM Tris buffer, 150 mM NaCl. The enzyme hydrolysis of the beta-lactam nuclei releases an acid and induces a drop in the pH. The principle of the assay is to compensate for the acidification by the addition of 0.1 N sodium hydroxide so as to remain at pH=7.0. In these conditions, one unit corresponds to 1 μmole of sodium hydroxide added per minute, that is, one μmole of beta-lactam hydrolysed per minute. Table 3 below lists the specific activities measured for each protein on the three substrates (mean of 6 replicates).

A short description of data set [2]: pH-STAT beta-lactam hydrolysis assay, substrate ceftriaxone. The note with it: pH=7.0; for Specific activity, substrate Ceftriaxone: 37° C. It counts as biochemical. The protocol:
as §1
The purified proteins were tested on different antibiotics: Ceftriaxone (RocéphineED, Roche) for the beta-lactams and kanamycin for the Aminoglycosides. The assays on ceftriaxone were carried out at pH-STAT (Titrino 2.5, Metrohm) in a reaction volume of 25 ml at 37° C. and pH=7.0. The substrates are prepared at 4 g/l in a 0.3 mM Tris buffer, 150 mM NaCl. The enzyme hydrolysis of the beta-lactam nuclei releases an acid and results in a drop in the pH. The principle of the assay is to compensate this acidification by the addition of 0.1 N sodium hydroxide so as to remain at pH=7.0. In these conditions, one unit corresponds to 1 μmol of sodium hydroxide added per minute, that is one μmol of beta-lactam hydrolyzed per minute.

Data set [3] can be described thus: pH-STAT beta-lactam hydrolysis assay, substrate amoxicillin. Type of data set: biochemical. The note with it: 37° C., pH=7.0. The protocol:
as §1

Data set [4] is described as follows: Acetyl-transferase indirect colorimetric assay (acetyl-CoA, DTNB). The note with it: Table 12; 500 μM Kanamycin, 500 μM AcetylCoA, 250 μM DTNB; 1 unit = one nanomole of TNB released per minute at 37° C.; n=6. Type of data set: biochemical. The protocol: The activity of acety-transferase is measured by an indirect colorimetric assay with acetyl-CoA (Sigma-Aldrich) as acetyl group donor, Kanamycin as acceptor and Elleman reagent (DTNB, Sigma-Aldrich) to titrate the CoEnzymeA reduced (—SH) molecules released during the enzyme reaction [Ref]. The reaction takes place on a microtitration plate with increasing quantities of purified enzymes, in a final volume of 200 μl and with concentrations of 500 μM Kanamycin, 500 μM AcetylCoA and 250 μM DTNB. In these experimental conditions, the ion TNB^2 absorbs at 412 nm with an ε(λ=412 nm) apparent 19 000 M^−1.well^−1 (well of a 96 well plate filled with 200 μl) and 1 unit corresponds to one nanomole of TNB^2 released per minute at 37° C.

The mark [5] stands for this setting: Table 3, proteins produced in Pichia pastoris, substrate 4 g/l, mean of 6 replicates.
Setting [6] is: Table 5 (Example 2), proteins produced in Pichia pastoris.
[7] abbreviates: Table 7 (Example 3), proteins produced in Pichia pastoris.
Setting [8] is: Table 9, proteins produced in Escherichia coli BL21(DE3) pLysS.

B1: CTX-M16: SEQ ID 2; class A β-lactamase (cefotaximase), Genbank AAK32961, 263 aa; constituent enzyme (protein, listed as Escherichia coli)
chain: QTSAVQQKLAALEKSSGGRLGVALIDTADNTQVLYRGDERFPMCSTSKVMAAAAVLKQSETQKQLLNQPVEIKPADLVNYNPIAEKHVNGTMTLAELSAAALQYSDNTAMNKLIAQLGGPGGVTAFARAIGDETFRLDRTEPTLNTAIPGDPRDTTTPRAMAQTLRQLTLGHALGETQRAQLVTWLKGNTTGAASIRAGLPTSWTAGDKTGSGGYGTTNDIAVIWPQGRAPLVLVTYFTQPQQNAESRRDVLASAARIIAEGL
In the case of B1, the “MIC of Amoxicillin for E. coli strain expressing the protein” value with E. coli BL21(DE3)pLysS was greater than 1024 µg/mL. In the data set on E. coli BL21(DE3)pLysS, the “MIC of Augmentin for E. coli strain expressing the protein” value came out at 4 µg/mL. For the same molecule, the “MIC of Rocephine for E. coli strain expressing the protein” value with E. coli BL21(DE3)pLysS was 512 µg/mL. The “Specific activity, substrate Augmentin” value in data set [1] (setting [5]), in data set [1] (setting [6]), in data set [1] (setting [7]) and in data set [1] (setting [8]) was 0 U/mg throughout. Also, the “Specific activity, substrate Ceftriaxone” value in data set [2] (setting [5]) came out at 306 ± 44 U/mg; in data set [2] (setting [6]) it was 306 ± 44 U/mg; in data set [2] (setting [7]), 306 ± 44 U/mg; in data set [2] (setting [8]) it was 158 ± 14 U/mg. The “Specific activity, substrate Cetriaxone” value in data set [2] (Table 12, pH-STAT 37° C., AAC and fusion from E. coli, CTX-M16 from P. pastoris, n=6) is 336 ± 5 U/mg. Besides, the “Specific activity, substrate Amoxicillin” value in data set [3] (Table 3, proteins produced in Pichia pastoris, substrate 4 g/l, 1 U = 1 μmole beta-lactam hydrolysed per minute, mean of 6 replicates) is recorded as 31 ± 2 U/mg; in data set [3] (setting [6]) it was 31 ± 2 U/mg; in data set [3] (setting [7]), 31 ± 2 U/mg; in data set [3] (Table 9, proteins produced in Escherichia coli BL21(DE3) pLysS (periplasm, non-glycosylated)), 21 ± 1 U/mg. Also, the “Specific activity, substrate Kanamycin” value in data set [4] was determined as 0 U/mg.

For the origin of these results see patent publication US20170354706A1, “HYBRID PROTEINACEOUS MOLECULE CAPABLE OF INHIBITING AT LEAST ONE ANTIBIOTIC AND PHARMACEUTICAL COMPOSITION CONTAINING IT” (priority 2014, published 2017).
